B1: Tyrosine-protein kinase CSK (Homo sapiens), P41240 (parent)
chain: MSAIQAAWPSGTECIAKYNFHGTAEQDLPFCKGDVLTIVAVTKDPNWYKAKNKVGREGIIPANYVQKREGVKAGTKLSLMPWFHGKITREQAERLLYPPETGLFLVRESTNYPGDYTLCVSCDGKVEHYRIMYHASKLSIDEEVYFENLMQLVEHYTSDADGLCTRLIKPKVMEGTVAAQDEFYRSGWALNMKELKLLQTIGKGEFGDVMLGDYRGNKVAVKCIKNDATAQAFLAEASVMTQLRHSNLVQLLGVIVEEKGGLYIVTEYMAKGSLVDYLRSRGRSVLGGDCLLKFSLDVCEAMEYLEGNNFVHRDLAARNVLVSEDNVAKVSDFGLTKEASSTQDTGKLPVKWTAPEALREKKFSTKSDVWSFGILLWEIYSFGRVPYPRIPLKDVVPRVEKGYKMDAPDGCPPAVYEVMKNCWHLDAAMRPSFLQLREQLEHIKTHELHL

Variants of: B1
Conditions: with src_chick SRC

Row | Variant | effect of a mutation on the interaction
1 | R281A | decreasing interaction
2 | R283A | decreasing interaction
3 | R389A | decreasing interaction
4 | R384A | decreasing interaction
5 | R279A | decreasing interaction

From IntAct's records for PubMed 18614016
